This is an account of results in patent US20240383984A1 (Genentech, published 2024).

As a reminder, the Kd is a measure of binding affinity in units of concentration. Read a high Kd as weaker binding. Broadly, the koff is the rate constant with which the complex falls apart. A higher koff goes with a short-lived complex. The kon is the second-order rate constant of association. The low end stands for slow association, the high end for fast association.

For assay [1], the target named is T1, cynomolgus FcRH5 protein fragment (soluble) (cynomolgus monkey).
T1 construct: whole entry named; also called Cyno FcRH5 (BIACORE analyte)
T1 chain: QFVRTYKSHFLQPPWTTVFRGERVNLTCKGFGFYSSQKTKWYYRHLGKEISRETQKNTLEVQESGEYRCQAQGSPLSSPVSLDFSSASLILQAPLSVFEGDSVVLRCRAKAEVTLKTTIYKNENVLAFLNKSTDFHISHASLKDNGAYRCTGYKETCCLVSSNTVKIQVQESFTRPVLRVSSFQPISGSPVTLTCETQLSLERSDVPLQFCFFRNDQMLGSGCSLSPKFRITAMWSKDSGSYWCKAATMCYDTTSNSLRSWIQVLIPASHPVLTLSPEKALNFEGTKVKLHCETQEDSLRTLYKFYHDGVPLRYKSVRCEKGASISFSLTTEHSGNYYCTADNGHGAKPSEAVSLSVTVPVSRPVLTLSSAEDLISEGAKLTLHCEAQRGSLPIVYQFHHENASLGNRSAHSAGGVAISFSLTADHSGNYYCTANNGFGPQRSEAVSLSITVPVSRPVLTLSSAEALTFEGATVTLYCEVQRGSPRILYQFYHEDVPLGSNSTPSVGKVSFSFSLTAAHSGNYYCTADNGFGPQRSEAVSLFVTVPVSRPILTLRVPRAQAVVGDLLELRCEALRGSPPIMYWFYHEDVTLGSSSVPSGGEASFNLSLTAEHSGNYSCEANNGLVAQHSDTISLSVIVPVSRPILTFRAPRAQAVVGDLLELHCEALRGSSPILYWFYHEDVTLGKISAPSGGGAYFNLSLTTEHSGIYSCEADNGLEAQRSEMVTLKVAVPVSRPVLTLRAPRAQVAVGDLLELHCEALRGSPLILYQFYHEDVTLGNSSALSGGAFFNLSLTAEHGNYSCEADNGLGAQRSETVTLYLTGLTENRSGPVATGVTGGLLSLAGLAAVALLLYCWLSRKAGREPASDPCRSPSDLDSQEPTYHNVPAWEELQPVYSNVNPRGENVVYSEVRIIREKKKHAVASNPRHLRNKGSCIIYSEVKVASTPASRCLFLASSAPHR
In words: SPR, hIgG capture, 1:1 model. The procedure:
(§1) Briefly, a human IgG capture surface was generated on a Series S CM5 chip using amine coupling and the human IgG capture kit (GE Life Sciences, Piscataway, NJ). Test antibodies were then captured on flow cells 2, 3, or 4, with flow cell 1 used as a reference. An FcRH5 protein fragment was used as the analyte, with a flow rate of […]. Between injections the capture surface was regenerated by a 30-second injection of 3M magnesium chloride or 10 mM glycine, pH 1.5. Interactions were assessed at 25° C. in 10 mM HEPES pH7.4, 150 mM NaCl, and 0.05% Tween 20 (HBSP). Reference data from the reference flow cell and from injection of buffer alone were subtracted prior to kinetic analysis. Kinetic information was calculated by fitting data to a 1:1 binding model. Reference subtraction and data fitting were performed using BIAevaluation software (GE Life Sciences, Piscataway, NJ).
(§2) Kinetic characterization experiments were carried out (see Table 8). In these experiments, binding of soluble FcRH5 protein fragment to purified antibodies in human TDB antibody format was analyzed at six different non-zero concentrations (a 1:3 dilution series, one concentration injected twice as a replicate). Flow rate was set at 40 μl/min and association and dissociation monitored for 600 s.
(Surface plasmon resonance follows binding to a sensor surface in real time, without labels.)

A further assay has as its target T2, 293-FcRH5-DEL (human, UniProt Q96RD9).
T2 construct: domain 9 deletion, expressed on 293 cells
T2 sequence (receptor, looked up): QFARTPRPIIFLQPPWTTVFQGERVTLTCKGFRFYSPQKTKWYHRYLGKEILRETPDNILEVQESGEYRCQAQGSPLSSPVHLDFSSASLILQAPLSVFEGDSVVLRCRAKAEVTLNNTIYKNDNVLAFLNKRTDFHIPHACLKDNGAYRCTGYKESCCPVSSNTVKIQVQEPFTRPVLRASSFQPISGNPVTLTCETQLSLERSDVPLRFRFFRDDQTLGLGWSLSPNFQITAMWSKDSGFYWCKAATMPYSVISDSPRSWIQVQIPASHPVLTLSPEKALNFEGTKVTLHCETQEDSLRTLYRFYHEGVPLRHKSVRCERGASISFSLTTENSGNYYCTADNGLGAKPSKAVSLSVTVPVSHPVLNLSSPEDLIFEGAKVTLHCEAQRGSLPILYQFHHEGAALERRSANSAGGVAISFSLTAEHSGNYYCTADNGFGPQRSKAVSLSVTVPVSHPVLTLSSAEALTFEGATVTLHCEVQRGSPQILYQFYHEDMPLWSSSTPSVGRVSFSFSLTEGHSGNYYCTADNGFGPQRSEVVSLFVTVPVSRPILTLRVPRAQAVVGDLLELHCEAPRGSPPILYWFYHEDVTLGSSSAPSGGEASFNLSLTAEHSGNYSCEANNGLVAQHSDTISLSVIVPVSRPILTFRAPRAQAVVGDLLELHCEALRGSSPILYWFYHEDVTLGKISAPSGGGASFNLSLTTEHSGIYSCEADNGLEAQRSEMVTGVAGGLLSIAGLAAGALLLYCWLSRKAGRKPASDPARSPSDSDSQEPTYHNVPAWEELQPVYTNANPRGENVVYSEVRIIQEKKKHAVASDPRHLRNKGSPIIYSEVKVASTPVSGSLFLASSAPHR
Description: flow cytometry on 293 cells with domain 9-deleted FcRH5, PE-labelled secondary. Background: In flow cytometry, cells or beads pass a laser one at a time.

The target in assay [2] is T1, cynomolgus FcRH5 protein fragment …. In words: BIACORE, hIgG capture, 1:1 model, monovalent. The method, then: as §1, §2
Assay [3] shares this target. Description: SPR (BIACORE), hIgG capture format, 1:1 binding model, monovalent affinity; same numbers as FIG. 10B, Cyno FcRH5 panel. The procedure: as §2

B1: hu1G7.v1.4/38E4.v1 TDB (bispecific antibody, V domains shown)
VH 1: EVQLVESGPGLVKPSETLSLTCTVSGFSLTRFGVHWVRQPPGKGLEWLGVIWRGGSTDYNAAFMSRLTISKDNSKNQVSLKLSSVTAADTAVYYCSNHYYGSSDYALDNWGQGTLVTVSS
VL 1: DIQMTQSPSSLSASVGDRVTITCKASQDVRNLVVWFQQKPGKAPKLLIYSGSYRYSGVPSRFSGSGSGTDFTLTISSLQPEDFATYYCQQHYSPPYTFGQGTKVEIK
VH 2: EVQLVQSGAEVKKPGASVKVSCKASGFTFTSYYIHWVRQAPGQGLEWIGWIYPENDNTKYNEKFKDRVTITADTSTSTAYLELSSLRSEDTAVYYCARDGYSRYYFDYWGQGTLVTVSS
VL 2: DIVMTQSPDSLAVSLGERATINCKSSQSLLNSRTRKNYLAWYQQKPGQSPKLLIYWTSTRKSGVPDRFSGSGSGTDFTLTISSLQAEDVAVYYCKQSFILRTFGQGTKVEIK
notes: knob-into-hole TDB; also called 1G7.v1.4 TDB; 1G7.v1.4 (TDB format)
In assay [1], B1 returned a Kd of 6.3 nM, an off-rate (koff) of 0.0008 s⁻¹ and a kon of 100000 M⁻¹ s⁻¹.

B2: 1G7.v85/38E4.v1 TDB (bispecific antibody, V domains shown)
VH 1: EVQLVESGPGLVKPSETLSLTCTVSGFSLTRFGVHWVRQPPGKGLEWLGVIWRGGSTDYNAAFVSRLTISKDNSKNQVSLKLSSVTAADTAVYYCSNHYYGSSDYALDNWGQGTLVTVSS
VL 1: DIQMTQSPSSLSASVGDRVTITCKASQDVRNLVVWFQQKPGKAPKLLIYSGSYRYSGVPSRFSGSGSGTDFTLTISSLQPEDFATYYCQQHYSPPYTFGQGTKVEIK
VH 2: EVQLVQSGAEVKKPGASVKVSCKASGFTFTSYYIHWVRQAPGQGLEWIGWIYPENDNTKYNEKFKDRVTITADTSTSTAYLELSSLRSEDTAVYYCARDGYSRYYFDYWGQGTLVTVSS
VL 2: DIVMTQSPDSLAVSLGERATINCKSSQSLLNSRTRKNYLAWYQQKPGQSPKLLIYWTSTRKSGVPDRFSGSGSGTDFTLTISSLQAEDVAVYYCKQSFILRTFGQGTKVEIK
notes: knob-into-hole TDB; also called 1G7.v85 TDB; 1G7.v85 (TDB format)
As for B2, the binding result in the assay with 293-FcRH5-DEL was “no binding”. In assay [1], this molecule displayed a Kd of 6.8 nM, a koff of 0.0008 s⁻¹ and a kon of 100000 M⁻¹ s⁻¹. Binding in assay [2] was put at a Kd of 6.76 nM. For the same molecule, in assay [3], binding was characterised by a dissociation constant (Kd) of 6.76 nM, the koff was 0.000847 s⁻¹ and the on-rate constant (kon) stood at 125000 M⁻¹ s⁻¹.
